# Assay results: the supplement of paper PMC11246515
# ± gives the standard deviation of the averaged measurements.
# Experiment: total protein half-life in vivo (active degradation + dilution); higher = more stable protein
# [1] = E. coli NCM3722 delta-clpP delta-lon delta-hslV, growth: N-lim chemostat, doubling time 6 h
# [2] = E. coli NCM3722 delta-clpP, growth: N-lim chemostat, doubling time 6 h
# [3] = E. coli NCM3722 delta-hslV, growth: N-lim chemostat, doubling time 6 h
# [4] = E. coli NCM3722 delta-smpB, growth: N-lim chemostat, doubling time 6 h
# [5] = wild type E. coli NCM3722, growth: C-lim chemostat, doubling time 3 h
# [6] = wild type E. coli NCM3722, growth: C-lim chemostat, doubling time 12 h
# [7] = wild type E. coli NCM3722, growth: N-lim chemostat, doubling time 6 h
# [8] = wild type E. coli NCM3722, growth: N-lim chemostat, doubling time 12 h
# [9] = wild type E. coli NCM3722, growth: P-lim chemostat, doubling time 6 h
# [10] = wild type E. coli NCM3722, growth: P-lim chemostat, doubling time 12 h
# [11] = E. coli NCM3722 delta-lon, growth: N-lim chemostat, doubling time 6 h
# [12] = wild type E. coli NCM3722, growth: C-lim chemostat, doubling time 6 h
Sequence,total protein half-life in vivo [1],total protein half-life in vivo [2],total protein half-life in vivo [3],total protein half-life in vivo [4],total protein half-life in vivo [5],total protein half-life in vivo [6],total protein half-life in vivo [7],total protein half-life in vivo [8],total protein half-life in vivo [9],total protein half-life in vivo [10],total protein half-life in vivo [11],total protein half-life in vivo [12]
MKKMLLATALALLITGCAQQTFTVQNKQTAVAPKETITHHFFVSGIGQKKTVDAAKICGGAENVVKTETQQTFVNGLLGFITLGIYTPLEARVYCSK,6.1 ± 0.25 h,6.87 h,6.21 h,6.05 ± 0.44 h,3.42 ± 0.22 h,9.62 ± 2.6 h,6.71 ± 0.74 h,12.4 ± 0.78 h,6.65 ± 0.69 h,14.7 ± 0.54 h,,
MKKMMIATLAAASVLLAVANQAXAGATLDAVQKKGFVQCGISDGLPGFSYADADGKFSGIDVDICRGVAAAVFGDDTKVKYTPLTAKERFTALQSGEVDLLSRNTTWTSSRDAGMGMAFTGVTYYDGIGFLTHDKAGLKSAKELDGATVCIQAGTDTELNVADYFKANNMKYTPVTFDRSDESAKALESGRCDTLASDQSQLYALRIKLSNPAEWIVLPEVISKEPLGPVVRRGDDEWFSIVRWTLFAMLNAEEMGINSQNVDEKAANPATPDMAHLLGKEGDYGKDLKLDNKWAYNIIKQVGNYSEIFERNVGSESPLKIKRGQNNLWNNGGIQYAPPVR,4.74 ± 0.45 h,,,,,,,,,,,
MKKNQFLKESDVTAESVFFMKRRQVLKALGISATALSLPHAAHADLLSWFKGNDRPPAPAGKALEFSKPAAWQNNLPLTPADKVSGYNNFYEFGLDKADPAANAGSLKTDPWTLKISGEVAKPLTLDHDDLTRRFPLEERIYRMRCVEAWSMVVPWIGFPLHKLLALAEPTSNAKYVAFETIYAPEQMPGQQDRFIGGGLKYPYVEGLRLDEAMHPLTLMTVGVYGKALPPQNGAPVRLIVPWKYGFKGIKSIVSIKLTRERPPTTWNLAAPDEYGFYANVNPYVDHPRWSQATERFIGSGGILDVQRQPTLLFNGYAAQVASLYRGLDLRENF,4.835 ± 0.0049 h,5.46 ± 0.24 h,5.75 ± 0.17 h,5.33 ± 0.3 h,2.98 ± 0.034 h,8.4 ± 0.38 h,5.79 ± 0.18 h,11.9 ± 0.43 h,5.91 ± 0.19 h,11.9 ± 0.57 h,5.98 ± 0.35 h,5.58 ± 0.24 h
MKKNRAFLKWAGGKYPLLDDIKRHLPKGECLVEPFVGAGSVFLNTDFSRYILADINSDLISLYNIVKMRTDEYVQAARELFVPETNCAEVYYQFREEFNKSQDPFRRAVLFLYLNRYGYNGLCRYNLRGEFNVPFGRYKKPYFPEAELYHFAEKAQNAFFYCESYADSMARADDASVVYCDPPYAPLSATANFTAYHTNSFTLEQQAHLAEIAEGLVERHIPVLISNHDTMLTREWYQRAKLHVVKVRRSISSNGGTRKKVDELLALYKPGVVSPAKK [P0AEE8],5.89 ± 0.51 h,4.15 ± 0.098 h,5.84 ± 0.34 h,4.51 ± 0.34 h,2.94 ± 0.05 h,10.2 ± 0.14 h,4.65 ± 0.55 h,10.1 ± 0.92 h,5.39 ± 0.27 h,10.9 ± 0.14 h,4.29 ± 2.2 h,5.65 ± 0.72 h
MKKSTLALVVMGIVASASVQAAEIYNKDGNKLDVYGKVKAMHYMSDNASKDGDQSYIRFGFKGETQINDQLTGYGRWEAEFAGNKAESDTAQQKTRLAFAGLKYKDLGSFDYGRNLGALYDVEAWTDMFPEFGGDSSAQTDNFMTKRASGLATYRNTDFFGVIDGLNLTLQYQGKNENRDVKKQNGDGFGTSLTYDFGGSDFAISGAYTNSDRTNEQNLQSRGTGKRAEAWATGLKYDANNIYLATFYSETRKMTPITGGFANKTQNFEAVAQYQFDFGLRPSLGYVLSKGKDIEGIGDEDLVNYIDVGATYYFNKNMSAFVDYKINQLDSDNKLNINNDDIVAVGMTYQF,6.3 h,> 8 h,6.65 ± 0.12 h,6.18 ± 0.13 h,,12.6 ± 1.1 h,,11 ± 2.1 h,6.41 ± 0.31 h,13.9 ± 1.1 h,,5.98 ± 0.22 h
MKKTAAIISACMLTFALSACSGSNYVMHTNDGRTIVSDGKPQTDNDTGMISYKDANGNKQQINRTDVKEMVELDQ,5.09 ± 0.4 h,5.11 ± 0.78 h,5.48 ± 0.12 h,5.68 ± 1.2 h,3.35 ± 0.3 h,10.3 ± 0.96 h,5.312 ± 0.043 h,11.3 h,4.83 ± 0.12 h,11.1 ± 0.28 h,,5.25 ± 0.68 h
MKKTTLALSALALSLGLALSPLSATAAETSSATTAQQMPSLAPMLEKVMPSVVSINVEGSTTVNTPRMPRNFQQFFGDDSPFCQEGSPFQSSPFCQGGQGGNGGGQQQKFMALGSGVIIDADKGYVVTNNHVVDNATVIKVQLSDGRKFDAKMVGKDPRSDIALIQIQNPKNLTAIKMADSDALRVGDYTVAIGNPFGLGETVTSGIVSALGRSGLNAENYENFIQTDAAINRGNSGGALVNLNGELIGINTAILAPDGGNIGIGFAIPSNMVKNLTSQMVEYGQVKRGELGIMGTELNSELAKAMKVDAQRGAFVSQVLPNSSAAKAGIKAGDVITSLNGKPISSFAALRAQVGTMPVGSKLTLGLLRDGKQVNVNLELQQSSQNQVDSSSIFNGIEGAEMSNKGKDQGVVVNNVKTGTPAAQIGLKKGDVIIGANQQAVKNIAELRKVLDSKPSVLALNIQRGDSTIYLLMQ [P0C0V0],5.66 ± 0.5 h,5.71 ± 0.21 h,6.05 ± 0.44 h,5.87 ± 0.45 h,2.97 ± 0.12 h,10.9 ± 0.37 h,5.86 ± 0.23 h,11.5 ± 0.38 h,5.75 ± 0.2 h,11.4 ± 0.4 h,5.85 ± 0.21 h,5.88 ± 0.28 h
